Drawing on publication PMC8849053, this text covers Kd and dH for one substance.

For experiment [1], the target named is SARS-CoV-2 spike protein S1 (SARS-CoV-2). The experiment in a line: ITC. (ITC needs no label: the signal is the heat of the interaction.)
The target in experiment [2] is SARS-CoV-2 spike protein S2 (SARS-CoV-2). The experiment in a line: ITC.

Several values for one entry are separate records, joined by “and”; a condition that tells them apart may be missing. Equal entries are not always repeated.

In the case of “truncated canavalin (from UniProt P10562 242-445) (domain or fragment)”, the Kd was 20 µM and 100 µM in experiment [1]; 10 µM and 80 µM in experiment [2]. For the same substance, the dH in experiment [1] was -6 kcal/mol and -7 kcal/mol; in experiment [2] it was -0.8 kcal/mol.

Usually Kd stands for the concentration at which binding is half-saturated.
